Experimental data published in paper PMC10457294 (Nature Communications, 2023).

B1: human B7.2 ectodomain, His-tagged (domain or fragment)
chain: LKIQAYFNETADLPCQFANSQNQSLSELVVFWQDQENLVLNEVYLGKEKFDSVHSKYMGRTSFDSDSWTLRLHNLQIKDKGLYQCIIHHKKPTGMIRIHQMNSELSVLANFSQPEIVPISNITENVYINLTCSSIHGYPEPKKMSVLLRTKNSTIEYDGVMQKSQDNVTELYDVSISLSVSFPDVTSNMTIFCILETDKTRLLSSPFSIELED
notes: also called hB7.2; CD86
B2: human B7.2 ectodomain fused to human Fc (Fc fusion)
chain: B1 chain
notes: also called hB7.2-Fc; hB7.2-hFc; not shown: Fc (human), C-terminal, kept
B3: human B7.1 ectodomain, His-tagged (domain or fragment)
chain: VIHVTKEVKEVATLSCGHNVSVEELAQTRIYWQKEKKMVLTMMSGDMNIWPEYKNRTIFDITNNLSIVILALRPSDEGTYECVVLKYEKDAFKREHLAEVTLSVKADFPTPSISDFEIPTSNIRRIICSTSGGFPEPHLSWLENGEELNAINTTVSQDPETELYAVSSKLDFNMTTNHSFMCLIKYGHLRVNQTFNWNTT
notes: also called hB7.1; CD80
B4: human B7.1 ectodomain fused to human Fc (Fc fusion, UniProt P33681-1 35-234, looked up)
chain: B3 chain
notes: also called hB7.1-Fc; hB7.1-hFc; not shown: Fc (human), C-terminal, kept

What was measured:
[1] = target: MPXV Bio-M2 (site-specifically biotinylated MPXV Avi-M2) (monkeypox virus (Clade I), UniProt Q8V554 18-220); test: BLI; […] (10 ug/mL) […]; 10 mM HEPES pH 7.4, 150 mM NaCl, 3 mM EDTA, 1% BSA; 1:1 Langmuir model, […]; details: both partners purified
[2] = target: T1, MPXV M2 (monkeypox virus M2 protein), His-tagged, wild type (monkeypox virus (Clade I), UniProt Q8V554 18-220); test: BLI; […] (10 ug/mL) […]; 10 mM HEPES pH 7.4, 150 mM NaCl, 3 mM EDTA, 0.05% Tween, 1% BSA; 25 °C; 1:1 model; […]; details: both partners purified
T1 construct: copies: 6 or 7

Binder	Kd [1] [nM]	t1/2 (dissociation half-life time) [1] [min]	Kd [2] [nM]
B1	388	0.345	
B2			0.05
B3	95.3	1.71	
B4			0.15
